Consider four molecules from patent US20230340143A1 (published 2023).

Numbering of substitutions follows the chain as printed. Names and notes keep the numbering of the source.

One test concerns the target T1, CD39 mutant 19 (human, UniProt P49961 1-510).
T1 construct: Expressed on transfected HEK-293T cells; also called M19
T1 chain: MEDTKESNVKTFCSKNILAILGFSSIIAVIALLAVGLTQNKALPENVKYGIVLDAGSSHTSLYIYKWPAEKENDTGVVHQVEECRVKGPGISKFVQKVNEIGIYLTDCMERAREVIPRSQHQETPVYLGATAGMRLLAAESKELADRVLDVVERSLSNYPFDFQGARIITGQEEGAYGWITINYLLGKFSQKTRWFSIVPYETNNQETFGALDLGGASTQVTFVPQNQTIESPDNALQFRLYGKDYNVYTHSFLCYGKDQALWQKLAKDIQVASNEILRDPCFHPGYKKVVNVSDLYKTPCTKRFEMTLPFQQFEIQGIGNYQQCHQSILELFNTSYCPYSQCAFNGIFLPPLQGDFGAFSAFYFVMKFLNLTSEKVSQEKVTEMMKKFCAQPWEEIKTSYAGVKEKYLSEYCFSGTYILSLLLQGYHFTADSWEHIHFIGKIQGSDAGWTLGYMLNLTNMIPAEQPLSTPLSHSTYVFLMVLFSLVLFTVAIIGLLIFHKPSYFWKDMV
The experiment in a line: flow cytometry on HEK-293T cells expressing mutant 19. The protocol:
(§1) In order to define the epitopes of the further anti-CD39 antibodies of Example 5, they were tested for loss of binding to the panel of CD39 mutants as described in Example 1 and Table 1. Mutants were transfected in Hek-293T cells, as shown in the table 1, using numbering of SEQ ID NO: 1.Dose-ranges of test antibodies (10 - 2.5 - 0.625 - 0.1563 - 0.0391 - 0.0098 - 0.0024 - 0.0006 µg/ml) are tested on the 20 generated mutants by flow cytometry.
(In general: A flow cytometer gives signals particle by particle.)

The target in test [1] is T2, CD39 mutant 5 (human, UniProt P49961 1-510).
T2 construct: Expressed on transfected HEK-293T cells; also called M5
T2 chain: T1 chain with Q96A, N99A, A138R, A139M, K142E, E143A, R147E
The experiment in a line: flow cytometry on HEK-293T cells expressing mutant 5. On the procedure: as §1

Test [2] deals with T3, human CD39 expressed at the cell surface (human, UniProt P49961 1-510).
T3 construct: On CHO transfectants, HEK-293T transfectants or endogenous on Ramos cells; also called huCD39; CHO-huCD39
T3 sequence: T1 chain with A138R, A139M, K142E
Kind of test: flow cytometry screen on CHO expressing huCD39 against wild type CHO. The protocol:
In initial immunization protocols, the primary screen involved testing supernatant (SN) of growing clones by flow cytometry using wild type CHO and CHO expressing huCD39 cell lines. Cells were stained with 0.1 µM and 0.005 µM CFSE, respectively. […] For antibodies that bound huCD39, supernatants were then screened for inhibition of the enzymatic activity of soluble CD39 using the screening assay developed and described above (Methods).
In view of the absence of antibodies able to inhibit soluble CD39, a further immunization was carried out with a screening protocol designed to favor the generation of antibodies that bind the active site of CD39 as identified by the epitope of antibody BY40. Briefly, the primary screen involved testing supernatant (SN) of growing clones by flow cytometry using wild type CHO and CHO expressing huCD39 cell lines, as in the preceding immunizations, followed by screening for loss of binding Hek-293T cells expressing CD39 mutant 5, compared to wild-type CD39, as shown in Table 1. Mutant 5 has substitutions at residues Q96, N99, E143 and R147.

Test [3] addresses T2, CD39 mutant 5. Kind of test: flow cytometry screen on HEK-293T cells expressing CD39 mutant 5.
A further test has as its target T4, Human CD39-L1 (human, UniProt Q9Y5L3 1-495).
T4 construct: Recombinant protein coated in ELISA; also called NTPDase2; ENTPD2
T4 sequence: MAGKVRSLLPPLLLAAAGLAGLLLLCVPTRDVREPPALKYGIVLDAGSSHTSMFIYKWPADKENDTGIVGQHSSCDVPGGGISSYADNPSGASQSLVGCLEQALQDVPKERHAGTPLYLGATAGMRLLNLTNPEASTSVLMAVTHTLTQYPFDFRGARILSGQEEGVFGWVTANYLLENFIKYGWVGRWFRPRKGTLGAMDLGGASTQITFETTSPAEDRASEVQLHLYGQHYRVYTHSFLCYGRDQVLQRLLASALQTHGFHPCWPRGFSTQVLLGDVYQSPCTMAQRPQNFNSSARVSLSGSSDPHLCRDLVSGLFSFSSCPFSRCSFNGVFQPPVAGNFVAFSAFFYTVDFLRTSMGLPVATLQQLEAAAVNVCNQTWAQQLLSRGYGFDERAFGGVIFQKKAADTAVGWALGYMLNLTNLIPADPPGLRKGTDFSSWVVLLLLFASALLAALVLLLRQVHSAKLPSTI
Kind of test: ELISA, recombinant isoform coated. On the procedure:
Wells were washed in TBS Tween 20, and further saturated 2H at RT in TBS Blocking buffer. Dose range concentration of primary antibody was incubated in TBS blocking buffer for 2 h at RT. Wells were washed in TBS Tween 20. […] Optical density was measured on Enspire™ at OD=450.

B1: antibody I-396 (antibody, V domains shown)
VH: EVQLQQSGAELVKPGASVKLSCIVSGFNIKDTYINWVKQRPEQGLEWIGRIDPANGNTKYDPKFQGKATMTSDTSSNTAYLHLSSLTSDDSAVYYCARWGYDDEEADYFDSWGQGTTLTVSS
VL: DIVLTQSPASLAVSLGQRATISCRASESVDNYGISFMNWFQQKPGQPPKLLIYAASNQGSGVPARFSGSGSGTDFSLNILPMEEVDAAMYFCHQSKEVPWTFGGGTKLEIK
notes: Hybridoma antibody purified on protein A
For B1, the binding result (with CD39 mutant 19; with CD39 mutant 5 [1]; in test [2]) was “binds” in each case.

B2: antibody I-395 (antibody, V domains shown)
VH: EVQLQQSGPELVKPGASVRMSCKASGYTFTDYNMHWVKKNHGKGLEWIGYINPNNGGTTYNQKFKGKATLTVNTSSKTAYMELRSLTSEDSAVYYCTRGGTRFASWGQGTLVTVSA
VL: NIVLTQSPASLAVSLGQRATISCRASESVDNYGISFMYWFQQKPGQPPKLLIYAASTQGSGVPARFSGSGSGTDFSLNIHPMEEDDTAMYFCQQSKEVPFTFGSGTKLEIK
notes: as for B1
On to B2, for which the binding result in test [2] is “binds”.

B3: antibody I-399 (antibody, V domains shown)
VH: PVQLQQPGAEVVMPGASVKLSCKASGYTFTSFWMNWMRQRPGQGLEWIGEIDPSDFYTNSNQRFKGKATLTVDKSSSTAYMQLSSLTSEDSAVYFCARGDFGWYFDVWGTGTSVTVSS
VL: EIVLTQSPTTMTSSPGEKITFTCSASSSINSNYLHWYQQKPGFSPKLLIYRTSNLASGVPTRFSGSGSGTSYSLTIGTMEAEDVATYYCQQGSSLPRTFGGGTKLEIK
notes: as for B1
Regarding B3, the binding result in test [2] is on record as “binds”.

B4: antibody I-394 (antibody, V domains shown)
VH: EVQLQQSGPELVKPGASVKMSCKASGYTFTDYNMHWVKQSHGRTLEWIGYIVPLNGGSTFNQKFKGRATLTVNTSSRTAYMELRSLTSEDSAAYYCARGGTRFAYWGQGTLVTVSA
VL: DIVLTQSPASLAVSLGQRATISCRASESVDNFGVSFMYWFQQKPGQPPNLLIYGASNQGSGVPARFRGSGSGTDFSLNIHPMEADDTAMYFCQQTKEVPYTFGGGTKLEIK
notes: Mouse hybridoma antibody; also produced with human IgG1 constant domains carrying L234A/L235E/G237A/A330S/P331S (Kabat EU) and a huCk constant domain
For B4, the binding result is on record as “binds” with CD39 mutant 5 [3] and “no binding” in the test with Human CD39-L1.
